Consider one molecule from patent US20220010003A1 (Boehringer Ingelheim, published 2022).

For experiment [1], the target named is T1, recombinant human periostin (human, UniProt Q15063 22-836).
T1 sequence: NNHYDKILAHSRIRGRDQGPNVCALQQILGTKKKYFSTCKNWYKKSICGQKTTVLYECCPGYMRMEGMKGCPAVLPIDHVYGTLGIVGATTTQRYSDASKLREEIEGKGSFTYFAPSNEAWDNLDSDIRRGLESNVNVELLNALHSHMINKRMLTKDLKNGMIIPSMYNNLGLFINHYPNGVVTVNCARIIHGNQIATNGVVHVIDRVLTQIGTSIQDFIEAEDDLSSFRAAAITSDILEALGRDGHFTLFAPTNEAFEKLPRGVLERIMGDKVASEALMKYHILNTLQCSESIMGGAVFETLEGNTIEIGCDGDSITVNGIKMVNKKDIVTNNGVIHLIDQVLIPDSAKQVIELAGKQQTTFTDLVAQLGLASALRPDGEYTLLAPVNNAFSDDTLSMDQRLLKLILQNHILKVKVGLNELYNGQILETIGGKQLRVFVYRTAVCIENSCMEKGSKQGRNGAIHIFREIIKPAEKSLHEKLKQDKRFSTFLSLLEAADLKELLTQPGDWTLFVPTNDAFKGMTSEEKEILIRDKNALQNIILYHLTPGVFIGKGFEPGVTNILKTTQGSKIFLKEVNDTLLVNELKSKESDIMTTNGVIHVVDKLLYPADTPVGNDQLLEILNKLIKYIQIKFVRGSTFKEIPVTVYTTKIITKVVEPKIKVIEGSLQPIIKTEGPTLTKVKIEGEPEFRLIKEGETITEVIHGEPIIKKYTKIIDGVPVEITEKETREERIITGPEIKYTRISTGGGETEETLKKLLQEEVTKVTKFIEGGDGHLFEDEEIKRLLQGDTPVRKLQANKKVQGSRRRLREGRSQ
Kind of experiment: cell-based or functional assay.

The target in experiment [2] is T2, recombinant mouse periostin (mouse, UniProt Q62009-2 24-811, limits assumed).
T2 sequence (looked up): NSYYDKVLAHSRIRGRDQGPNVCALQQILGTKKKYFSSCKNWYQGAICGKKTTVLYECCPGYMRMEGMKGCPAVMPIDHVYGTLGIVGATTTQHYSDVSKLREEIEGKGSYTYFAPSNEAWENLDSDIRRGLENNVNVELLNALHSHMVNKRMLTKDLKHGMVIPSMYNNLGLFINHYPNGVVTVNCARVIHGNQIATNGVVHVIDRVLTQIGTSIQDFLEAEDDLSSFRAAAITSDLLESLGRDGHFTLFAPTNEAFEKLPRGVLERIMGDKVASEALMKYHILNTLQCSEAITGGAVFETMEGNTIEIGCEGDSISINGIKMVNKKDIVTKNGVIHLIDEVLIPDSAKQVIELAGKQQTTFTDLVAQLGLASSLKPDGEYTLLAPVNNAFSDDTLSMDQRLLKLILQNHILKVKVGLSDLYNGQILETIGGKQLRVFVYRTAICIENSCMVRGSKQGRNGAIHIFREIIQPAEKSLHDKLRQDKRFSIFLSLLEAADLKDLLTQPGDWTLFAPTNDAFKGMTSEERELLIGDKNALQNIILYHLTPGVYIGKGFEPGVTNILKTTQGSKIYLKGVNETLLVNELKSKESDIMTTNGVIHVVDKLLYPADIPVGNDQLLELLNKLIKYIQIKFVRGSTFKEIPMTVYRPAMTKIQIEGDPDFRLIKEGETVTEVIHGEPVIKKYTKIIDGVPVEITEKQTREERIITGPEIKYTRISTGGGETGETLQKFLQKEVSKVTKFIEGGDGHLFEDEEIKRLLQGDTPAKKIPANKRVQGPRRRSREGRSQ
Description: cell-based or functional assay.

For experiment [3], the target named is T3, recombinant rat periostin (rat, UniProt A0A8I6AHK0 24-838).
T3 construct: also called RatPOSTN
Description: BLI (Octet Red); Table 6 ties the high end of the range to rat periostin. Here is the method: (§1) NB0828's binding affinity was determined across human, mouse, rat, and cyno species. NB0828 affinities were determined using the octet red system. Briefly, anti-human Fc (AHC) biosensors were used to capture NB0828, followed by association of titrating amounts of either recombinant human, mouse, rat, or cyno periostin (100 nM→0 nM; 1:2 dilutions). Recombinant human, mouse, and rat periostin was purchased commercially from R&D systems, whereas cyno periostin was made internally.

Experiment [4] has as its target T2, recombinant mouse periostin. Kind of experiment: BLI (Octet Red), NB0828 captured on anti-human Fc (AHC) biosensors, periostin titrated from 100 nM. The procedure: as §1
For orientation: Biolayer interferometry detects binding as a change in optical thickness at a sensor tip.

The target of experiment [5] is T4, recombinant cyno periostin (cyno, UniProt F6ZVK0 47-861 (rhesus entry)).
T4 construct: also called CynoPOSTN
T4 sequence: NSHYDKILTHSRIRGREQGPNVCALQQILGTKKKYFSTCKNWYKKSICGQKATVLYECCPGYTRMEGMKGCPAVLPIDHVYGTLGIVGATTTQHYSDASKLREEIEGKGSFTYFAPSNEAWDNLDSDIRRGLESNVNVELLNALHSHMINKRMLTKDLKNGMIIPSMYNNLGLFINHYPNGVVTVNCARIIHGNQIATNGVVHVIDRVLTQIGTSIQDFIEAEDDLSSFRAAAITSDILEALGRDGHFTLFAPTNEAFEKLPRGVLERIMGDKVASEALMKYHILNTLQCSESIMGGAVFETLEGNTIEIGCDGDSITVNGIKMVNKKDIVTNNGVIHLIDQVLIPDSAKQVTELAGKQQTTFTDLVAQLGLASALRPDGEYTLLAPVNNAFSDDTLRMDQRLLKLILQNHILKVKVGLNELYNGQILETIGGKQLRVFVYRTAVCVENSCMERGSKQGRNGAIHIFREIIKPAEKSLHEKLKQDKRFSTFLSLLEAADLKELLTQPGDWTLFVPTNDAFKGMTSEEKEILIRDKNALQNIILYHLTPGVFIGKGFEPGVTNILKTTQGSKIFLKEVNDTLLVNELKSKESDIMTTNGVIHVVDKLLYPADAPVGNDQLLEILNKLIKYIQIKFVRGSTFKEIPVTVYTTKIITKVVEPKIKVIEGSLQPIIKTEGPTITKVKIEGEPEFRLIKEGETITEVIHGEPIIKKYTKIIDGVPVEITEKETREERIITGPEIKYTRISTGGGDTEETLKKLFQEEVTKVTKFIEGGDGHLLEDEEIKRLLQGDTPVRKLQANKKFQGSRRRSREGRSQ
The description is as above. The procedure: as §1

B1: NB0828 (antibody, V domains shown)
VH: QVQLVQSGAEVKKPGASVKVSCKASGYTFTSYGISWVRQAPGQGLEWMGWISAYNGNTNYAQKLQGRVTMTTDTSTSTAYMELRSLRSDDTAVYYCARDMLVVPFDYWGQGTLVTVSS
VL: QSVLTQSSSASGTPGQTVTVSCSGSSSDIGSNRVNWYQQLPGTAPKLLIYSNDQRPSGVPDRFSGSKSGTSASLAISGLQSADEADYYCAAWDDSLSTYVFGSGTKVTVL
The Kd is the constant that tells how readily two partners part at equilibrium. One may read the koff as the rate constant with which the complex falls apart. Usually kon stands for the second-order rate constant of association. As to B1, the “CAA IC50” value in experiment [1] is 24.3 nM; in experiment [2], 26 nM. Also, the Kd in experiment [3] was 0.5 nM; in experiment [4] it was 0.114 nM; in experiment [5] it was 0.265 nM. For the same molecule, the koff turned out to be 7.64e-05 s⁻¹ in experiment [4] and 0.000211 s⁻¹ in experiment [5]. Besides, the kon came to 670000 M⁻¹ s⁻¹ in experiment [4] and 794000 M⁻¹ s⁻¹ in experiment [5].
